Data as given in doi:10.1101/2025.11.26.690765.
pKd: −log10 of the molar value.

Target: 4-1BB (Acro) (Homo sapiens (assumed)) (UniProt Q07011)
Assay: SPR

For “Urelumab, variable domains in human IgG1 expression vectors (antibody)”, the pKd was 8.10.
